One assay deals with T1, PD-L1-His (human, UniProt Q9NZQ7).
T1 construct: recombinant, His-tagged; also called human PD-L1-His (S1479, Y-Biologics)
The experiment in a line: competition ELISA: PD-L1-His pre-incubated with the antibody, then on coated PD-1-Fc (blocked ligand); % of max absorbance. For orientation: ELISA stands for enzyme-linked immunosorbent assay.

For assay [1], the target named is T2, PD-L1 on CHO cell line highly expressing PD-L1 (PD-1/PD-L1 blockade bioassay kit, promega J1250) (UniProt Q9NZQ7 19-290, limits assumed). The experiment in a line: cell-based or functional assay.
The next assay concerns the target T3, PD-L2-Fc (human, UniProt Q9BQ51).
T3 construct: recombinant Fc fusion; also called human PD-L2-Fc (#10292-H02H, Sino)
T3 sequence (ligand-Fc, looked up): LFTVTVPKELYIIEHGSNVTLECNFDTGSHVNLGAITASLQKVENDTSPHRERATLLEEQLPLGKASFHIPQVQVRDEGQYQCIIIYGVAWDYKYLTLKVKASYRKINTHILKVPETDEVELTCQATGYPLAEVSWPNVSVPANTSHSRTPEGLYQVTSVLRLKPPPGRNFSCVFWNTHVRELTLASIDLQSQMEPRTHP
The experiment in a line: ELISA on coated PD-L2-Fc (2.5 and 5 ug/well), OD450nm.

Assay [2] deals with T4, PD-L1-hFc (human, UniProt Q9NZQ7 19-238).
T4 construct: extracellular domain; Made in HEK-293F cells, protein A purified; also called PD-L1 antigen; PD-L1 protein
The experiment in a line: kinetics on PD-L1-hFc (legend paragraph 40; text names ProteOn XPR36, the sheet's sensorgrams have a nm axis).

In assay [3] the target is T2, PD-L1 on CHO cell line highly …. The experiment in a line: cell-based or functional assay. This is another data set of the same source.
In assay [4] the target is T5, human PD-L1 over-expressed on HEK293E cells (human, UniProt Q9NZQ7 19-290).
T5 construct: whole, on cells; also called human PD-L1 (NM_014143.2)
Briefly: flow cytometry on HEK293E/PD-L1 cells, FITC anti-human IgG, serial dilutions; fit table. The method, then: 0.5 to 1×10⁶ cells per sample were prepared from the transformation cell pools highly expressing human PD-L1, and antibodies were serially diluted at a constant dilution rate and reacted with the prepared cells at 4° C. for 20 minutes. Then, the cells were washed three times with PBS (#LB001-02, Welgene) containing 2% fetal bovine serum and reacted at 4° C. for 20 minutes with an anti-human IgG antibody (#FI-3000, Vectorlabs) conjugated with a FITC (fluorescein isothiocyanate) fluorescent substance. Then, the cells were subjected to the same washing process as above and then suspended in 0.5 ml of PBS containing 2% FBS (#26140-079, Thermo Fisher) with an FACSCanto II flow cytometer (BD Biosciences, USA) as a flow cytometer (Table 11).
(In general: In flow cytometry, cells or beads pass a laser one at a time.)

For a further assay, the target named is mouse PD-L1 protein (mouse, UniProt Q9EP73 19-238, limits assumed). The experiment in a line: SPR (ProteOn XPR36); format of the mouse protein not stated.
A further assay has as its target T6, cynomolgus PD-L1 protein (cynomolgus, UniProt G7PSE7 19-239).
T6 construct: also called monkey PD-L1
The experiment in a line: SPR (ProteOn XPR36); format of the cynomolgus protein not stated; cynomolgus PD-L1.

The target of assay [5] is T4, PD-L1-hFc. Briefly: SPR (ProteOn XPR36), PD-L1-hFc immobilised on GLC chip, antibody as analyte; human PD-L1. The method, then:
A ProteOn XPR36 (BioRad) instrument was used. The GLC sensor chip (BioRad) was mounted on the instrument and washed with PBST buffer, and the carboxymethyldextran surface was activated with an EDC/sulfo-NHS mixed solution. PD-L1-hFc dissolved at a concentration of 5 ug/ml in a 10 mM sodium acetate buffer solution (pH 5.0) was injected and immobilized on the GLC sensor chip.
In order to deactivate the activated carboxyl groups that remain unreacted with the PD-L1 protein, 1 M ethanolamine was flowed and 10 mM glycine (pH 2.0) was injected in order to wash proteins that remain unbound to the sensor chip.

Bounds are passed on as bounds.

T2 sequence (Q9NZQ7 19-290 limits assumed): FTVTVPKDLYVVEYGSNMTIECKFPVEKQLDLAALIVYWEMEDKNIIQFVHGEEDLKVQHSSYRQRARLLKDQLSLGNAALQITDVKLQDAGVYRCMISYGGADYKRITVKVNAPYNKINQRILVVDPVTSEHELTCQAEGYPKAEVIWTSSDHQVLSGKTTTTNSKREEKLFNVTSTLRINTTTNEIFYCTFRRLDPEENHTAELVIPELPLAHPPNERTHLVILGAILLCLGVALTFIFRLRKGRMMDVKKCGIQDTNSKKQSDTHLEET
T5 sequence (Q9NZQ7 19-290): as the sequence (Q9NZQ7 19-290 limits assumed) above
T4 sequence (Q9NZQ7 other isoform, or with tags, fused parts or gaps limits assumed): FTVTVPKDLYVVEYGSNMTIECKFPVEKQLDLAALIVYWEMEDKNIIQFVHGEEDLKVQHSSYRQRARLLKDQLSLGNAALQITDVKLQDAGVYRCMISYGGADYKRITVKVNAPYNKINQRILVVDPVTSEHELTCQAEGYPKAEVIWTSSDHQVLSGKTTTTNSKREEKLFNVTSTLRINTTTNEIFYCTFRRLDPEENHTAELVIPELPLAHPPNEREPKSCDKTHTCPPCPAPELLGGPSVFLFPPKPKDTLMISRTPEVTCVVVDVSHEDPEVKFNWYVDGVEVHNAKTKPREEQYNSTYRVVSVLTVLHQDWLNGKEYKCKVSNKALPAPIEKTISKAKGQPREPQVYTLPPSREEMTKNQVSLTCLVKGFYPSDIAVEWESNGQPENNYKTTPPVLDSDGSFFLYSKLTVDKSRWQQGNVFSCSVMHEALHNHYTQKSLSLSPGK
Sequence of mouse PD-L1 protein (Q9EP73 19-238 limits assumed): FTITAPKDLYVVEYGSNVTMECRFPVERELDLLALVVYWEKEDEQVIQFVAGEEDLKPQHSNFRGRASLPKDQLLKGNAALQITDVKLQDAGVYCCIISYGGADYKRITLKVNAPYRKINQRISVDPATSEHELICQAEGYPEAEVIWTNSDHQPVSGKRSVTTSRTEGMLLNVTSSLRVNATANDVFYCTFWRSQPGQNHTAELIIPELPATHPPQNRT
T6 sequence (G7PSE7 entry or part of it): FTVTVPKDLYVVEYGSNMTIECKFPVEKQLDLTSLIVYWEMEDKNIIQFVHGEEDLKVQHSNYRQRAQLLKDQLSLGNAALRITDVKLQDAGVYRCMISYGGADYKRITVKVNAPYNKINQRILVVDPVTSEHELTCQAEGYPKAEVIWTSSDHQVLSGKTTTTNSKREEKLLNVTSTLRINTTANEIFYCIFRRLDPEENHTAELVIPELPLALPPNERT
T1 sequence (Q9NZQ7 19-238 limits assumed): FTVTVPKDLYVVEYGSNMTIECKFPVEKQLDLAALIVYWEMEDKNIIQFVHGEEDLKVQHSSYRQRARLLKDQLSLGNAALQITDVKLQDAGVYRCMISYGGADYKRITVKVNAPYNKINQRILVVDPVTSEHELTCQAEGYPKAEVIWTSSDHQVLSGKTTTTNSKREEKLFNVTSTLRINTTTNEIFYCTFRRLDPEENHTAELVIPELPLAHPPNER

B1: PD-L1-16E12 (WT/Lambda) (antibody, V domains shown)
VH: QMQLVQSGAEVKKPGSSVKVSCKASGGTFSSYAISWVRQAPGQGLEWMGRIIPILGIANYAQKFQGRVTITADKSTSTAYMELSSLRSEDTAVYYCAKPRDGYNLVAFDIWGQGTMVTVSS
VL: QLVLTQPPSVSGAPGQTVTISCTGSSSNIGAGYDVHWYQQLPGTAPKLLIYGNNNRPSGVPDRFSGSKSGALASLAITGLQAEDGADYHCQSYDNSLSAHAVFGTGTKVTVL
On to B1, for which the IC50 (as a rule, the point on the concentration scale where inhibition reaches its midpoint) with PD-L1-His worked out at 9.11 nM. Further, in assay [1], the “Average *EC50 [nM], PD-1/PD-L1 blockade bioassay” value (from here on “Average *EC50 [nM]”) was found to be 0.96 nM.

B2: PD-L1-16E12-LS-4F5 (Kappa) (antibody, V domains shown)
VH: B1 VH
VL: QLVLTQPPSVSGAPGQRVTISCTGSSSNIGAGYDVHWYQQLPGAAPKLLIYGDINRPSGVPDRFSGSKSGISASLAITGLQAEDEADYYCQSYDSSLSGGVFGGGTKLTVL
In turn, B2 gave an IC50 with PD-L1-His of 7.66 nM. Moreover, in the assay with PD-L2-Fc, the binding result was “no binding (tested: 1.0 ug/ml)”. In addition, in [1], the “Average *EC50 [nM]” value came out at 0.25 nM.

B3: PD-L1-16E12 (WT/kappa) (antibody, V domains shown)
VH: B1 VH
VL: B1 VL
notes: also called PD-L1-16E12-Kappa
The molecule B3 showed an IC50 in the assay with PD-L1-His of 7.88 nM. In addition, in the assay with PD-L1-hFc [2], the Kd (in general, the equilibrium constant for the complex coming apart) stood at 0.0149 nM and the kon (commonly the rate constant with which the complex forms) is 268000 M⁻¹ s⁻¹. Also, in assay [3], the “EC50 (column 1차 EC50 [nM], first run; row 16E12, curve legend 16E12_Kappa)” value was 0.41 nM and the “EC50 (column 2차 EC50 [nM], second run; row 16E12, curve legend 16E12_Kappa)” value worked out at 0.45 nM. In assay [4], this molecule gave a Bmax of 4140 and a Kd of 4 nM. Further, in [1], the “Average *EC50 [nM]” value stood at 0.47 nM.

B4: PD-L1-16E12-LS-4F5 (Lambda) (antibody, V domains shown)
VH: B1 VH
VL: B2 VL
Consider B4, for which the IC50 in the assay with PD-L1-His was determined as 6.86 nM. In addition, in assay [1], the “Average *EC50 [nM]” value came out at 0.25 nM.

B5: PDL1-16E12 (LS/4F5) (antibody, V domains shown)
VH: B1 VH
VL: B2 VL
notes: also called 16E12(4F5); 16E12-4F5
B5: the Kd with mouse PD-L1 protein was 0.808 nM; with cynomolgus PD-L1 protein, less than 0.035 nM; with PD-L1-hFc [2], 0.00853 nM; in the assay with PD-L1-hFc [5] it was less than 0.032 nM; in assay [4], 1.46 nM. Also, the koff – broadly, the rate constant with which the complex falls apart – with mouse PD-L1 protein is 0.000673 s⁻¹; with cynomolgus PD-L1 protein, less than 1e-05 s⁻¹; with PD-L1-hFc [2], 2.18e-06 s⁻¹; with PD-L1-hFc [5] it was less than 1e-05 s⁻¹. Also, the kon is 833000 M⁻¹ s⁻¹ in the assay with mouse PD-L1 protein, 287000 M⁻¹ s⁻¹ with cynomolgus PD-L1 protein, 256000 M⁻¹ s⁻¹ with PD-L1-hFc [2] and 310000 M⁻¹ s⁻¹ in the assay with PD-L1-hFc [5]. For the same molecule, the “EC50 (first run)” value in assay [3] amounted to 0.3 nM. Further, the “EC50 (second run)” value in assay [3] was found to be 0.21 nM. The Bmax in [4] stood at 4100.

The values above are taken from US20190322750A1 (Y BIOLOGICS, published 2019).
